These are literature values, as cited in article PMC11969719, “Rapid synthesis of glycosylated insulins by flow-based peptide synthesis” (Chemical Science, 2025).

The conditions of the series: ref [5c,18]. From the text: To address this issue, we incorporated an isoacyl dipeptide unit at the Thr^A8-Ser^A9 position (superscripts indicate positions in the A-chain), following a previous report,[8b] as the isoacyl dipeptide improves both peptide solubility and synthetic efficiency.[19]

“A-chain: insulin A-chain, 21-amino acid chain of human insulin”: the “solubility (in words)” value is given as “poor solubility”.
